Measured values reported in paper PMC12499391.
pEC50: −log10 of the molar value.

Legend:
Experiment in all cases: ELISA; dose-response of S protein binding to ACE2 and C-type lectins; which partner was coated and how binding was detected is not given for this experiment
[1] = target: Recombinant human CLEC5A (human) (UniProt Q9NY25)
[2] = target: Recombinant human DC‐SIGN (human) (UniProt Q9NNX6)
[3] = target: Recombinant human L‐SIGN (human) (UniProt Q9H2X3)
[4] = target: Recombinant human CLEC2 (human) (UniProt Q9P126)
[5] = target: Recombinant human CLEC10A (human) (UniProt Q8IUN9)
UniProt Q8IUN9, sequence (Q8IUN9 whole entry): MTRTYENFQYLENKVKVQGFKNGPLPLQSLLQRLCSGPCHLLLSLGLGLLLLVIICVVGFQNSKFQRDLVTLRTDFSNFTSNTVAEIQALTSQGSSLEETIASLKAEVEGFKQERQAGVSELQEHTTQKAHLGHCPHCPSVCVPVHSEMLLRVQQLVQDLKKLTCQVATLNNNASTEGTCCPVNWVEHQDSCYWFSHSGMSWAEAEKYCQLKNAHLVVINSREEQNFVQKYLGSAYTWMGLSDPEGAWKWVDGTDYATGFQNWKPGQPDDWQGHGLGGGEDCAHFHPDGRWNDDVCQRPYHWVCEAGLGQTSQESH

UniProt Q9NY25, sequence (Q9NY25 whole entry): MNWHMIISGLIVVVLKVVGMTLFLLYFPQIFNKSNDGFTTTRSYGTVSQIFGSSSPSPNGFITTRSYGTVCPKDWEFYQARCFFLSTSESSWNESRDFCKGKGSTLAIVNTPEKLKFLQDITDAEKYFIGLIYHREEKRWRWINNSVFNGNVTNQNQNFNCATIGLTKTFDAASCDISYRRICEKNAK
UniProt Q9P126, sequence (Q9P126 whole entry): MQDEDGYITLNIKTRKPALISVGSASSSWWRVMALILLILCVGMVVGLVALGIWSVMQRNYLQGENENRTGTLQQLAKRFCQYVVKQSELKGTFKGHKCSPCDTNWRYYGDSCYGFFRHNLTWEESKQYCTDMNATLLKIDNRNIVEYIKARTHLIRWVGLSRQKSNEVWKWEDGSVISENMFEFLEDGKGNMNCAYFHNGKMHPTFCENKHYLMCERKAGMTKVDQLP
UniProt Q9NNX6, sequence (Q9NNX6 whole entry): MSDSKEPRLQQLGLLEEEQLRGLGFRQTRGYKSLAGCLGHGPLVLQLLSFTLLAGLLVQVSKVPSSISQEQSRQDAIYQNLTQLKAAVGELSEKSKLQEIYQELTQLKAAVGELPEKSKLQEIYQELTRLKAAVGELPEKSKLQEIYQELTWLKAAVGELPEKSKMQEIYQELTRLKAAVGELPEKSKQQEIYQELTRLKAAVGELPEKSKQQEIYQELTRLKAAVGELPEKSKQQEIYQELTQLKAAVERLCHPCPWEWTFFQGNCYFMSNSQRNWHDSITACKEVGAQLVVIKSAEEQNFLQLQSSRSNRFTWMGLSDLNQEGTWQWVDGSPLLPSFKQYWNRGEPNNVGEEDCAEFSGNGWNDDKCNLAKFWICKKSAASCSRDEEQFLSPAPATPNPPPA
UniProt Q9H2X3, sequence (Q9H2X3 whole entry): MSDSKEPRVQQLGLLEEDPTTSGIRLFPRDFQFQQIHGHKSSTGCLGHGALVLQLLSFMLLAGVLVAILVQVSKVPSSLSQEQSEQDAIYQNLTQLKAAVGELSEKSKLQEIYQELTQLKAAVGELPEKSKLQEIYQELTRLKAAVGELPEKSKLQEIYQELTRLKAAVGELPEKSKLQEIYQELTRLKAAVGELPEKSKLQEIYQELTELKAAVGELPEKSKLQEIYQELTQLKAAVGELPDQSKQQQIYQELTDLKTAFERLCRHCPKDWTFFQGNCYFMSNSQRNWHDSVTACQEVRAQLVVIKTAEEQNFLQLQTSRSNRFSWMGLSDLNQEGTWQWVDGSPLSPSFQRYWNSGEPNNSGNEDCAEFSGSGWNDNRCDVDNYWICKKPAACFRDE

SARS‐CoV‐2 spike (S) protein (from UniProt P0DTC2 14-1213) (natural protein)
pEC50 [1]: 8.19
pEC50 [2]: 8.34
pEC50 [3]: 8.29
pEC50 [4]: 8.11
pEC50 [5]: 8.01
